T1: Boi2 SH3 (BOI2_YEAST), P39969
T1 chain: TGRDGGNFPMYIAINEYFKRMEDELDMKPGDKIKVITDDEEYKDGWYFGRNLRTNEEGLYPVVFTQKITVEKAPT

T2: Yhr016c SH3 (YSC84_YEAST), P32793
T2 chain: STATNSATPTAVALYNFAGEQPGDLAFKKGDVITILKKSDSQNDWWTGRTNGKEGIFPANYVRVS

T3: Yfr024 SH3 (LSB3_YEAST), P43603
T3 chain: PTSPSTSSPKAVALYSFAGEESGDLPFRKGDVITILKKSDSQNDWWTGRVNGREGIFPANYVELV

T4: Myo5 SH3 (MYO5_YEAST), Q04439
T4 chain: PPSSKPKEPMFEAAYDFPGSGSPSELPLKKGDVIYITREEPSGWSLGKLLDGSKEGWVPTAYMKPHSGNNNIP

T5: Rvs167 SH3 (RV167_YEAST), P39743
T5 chain: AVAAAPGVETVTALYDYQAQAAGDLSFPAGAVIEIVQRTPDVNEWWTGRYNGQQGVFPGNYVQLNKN

T6: Boi1 SH3 (BOI1_YEAST), P38041
T6 chain: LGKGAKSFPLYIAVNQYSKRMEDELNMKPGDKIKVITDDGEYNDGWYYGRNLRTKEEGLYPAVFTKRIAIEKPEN


Target: T1, Boi2 SH3 (BOI2_YEAST), P39969
Experiment: SPOT array

Binder	normalised SPOT signal, Boehringer light units (BLU); mean over the file's lines of this peptide
LSKLRLSPENPSNT [YKL101W 1214-1227]	33.2
LSKVRGRPMYPRPA [YBR083W 422-435]	37
LTKIRRRPQQPLTD [YER047C 13-26]	84.8
LRISKPDPESPSKL [YBL101C 847-860]	0.6
LSFDRPPPLTPEKN [YER032W 254-267]	0
LQNAKNDPLPPVIE [YDL077C 56-69]	21.8
LQYHKKNPYSPLFS [YPL020C 12-25]	99.3
LSGTRLVPNSPLLW [YBR055C 692-705]	29.6
LTIFKRPPKQPGHQ [YOL006C 477-490]	37.3
LSPAKARPSFPHND [YOR178C 9-22]	31.9
LPLSRVQPVQPSQT [YNL007C 295-308]	27.1
LSRSKPLPLTPNSK [YCL027W 415-428]	86.5
LSYLKDLPFVPFLF [YNL143C 64-77]	6.6
LQQRRYYPIFPGSI [YBL035C 565-578]	472

Target: T2, Yhr016c SH3 (YSC84_YEAST), P32793
Experiment: SPOT array

Binder	normalised SPOT signal, Boehringer light units (BLU); mean over the file's lines of this peptide
LSKLRLSPENPSNT [YKL101W 1214-1227]	7.9
LSKVRGRPMYPRPA [YBR083W 422-435]	51.9
LTKIRRRPQQPLTD [YER047C 13-26]	71.9
LRISKPDPESPSKL [YBL101C 847-860]	74.5
LSFDRPPPLTPEKN [YER032W 254-267]	7.4
LQNAKNDPLPPVIE [YDL077C 56-69]	37.2
LQYHKKNPYSPLFS [YPL020C 12-25]	80.3
LSGTRLVPNSPLLW [YBR055C 692-705]	80.1
LTIFKRPPKQPGHQ [YOL006C 477-490]	730
LSPAKARPSFPHND [YOR178C 9-22]	47.2
LPLSRVQPVQPSQT [YNL007C 295-308]	21
LSRSKPLPLTPNSK [YCL027W 415-428]	105
LSYLKDLPFVPFLF [YNL143C 64-77]	18.8
LQQRRYYPIFPGSI [YBL035C 565-578]	44.5

target: Sho1 SH3 (SHO1_YEAST), P40073; experiment: SPOT array
Sequence (P40073 295-366): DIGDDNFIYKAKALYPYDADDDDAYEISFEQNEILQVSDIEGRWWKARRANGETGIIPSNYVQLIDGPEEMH

Binder	normalised SPOT signal, Boehringer light units (BLU); mean over the file's lines of this peptide
LSKLRLSPENPSNT [YKL101W 1214-1227]	54.8
LSKVRGRPMYPRPA [YBR083W 422-435]	82.7
LTKIRRRPQQPLTD [YER047C 13-26]	117
LRISKPDPESPSKL [YBL101C 847-860]	22.3
LSFDRPPPLTPEKN [YER032W 254-267]	48.1
LQNAKNDPLPPVIE [YDL077C 56-69]	0.2
LQYHKKNPYSPLFS [YPL020C 12-25]	63.3
LSGTRLVPNSPLLW [YBR055C 692-705]	94
LTIFKRPPKQPGHQ [YOL006C 477-490]	93.6
LSPAKARPSFPHND [YOR178C 9-22]	53.3
LPLSRVQPVQPSQT [YNL007C 295-308]	32.8
LSRSKPLPLTPNSK [YCL027W 415-428]	55900
LSYLKDLPFVPFLF [YNL143C 64-77]	22900
LQQRRYYPIFPGSI [YBL035C 565-578]	38.8

Target: T3, Yfr024 SH3 (LSB3_YEAST), P43603
Experiment: SPOT array

Binder	normalised SPOT signal, Boehringer light units (BLU); mean over the file's lines of this peptide
LSKLRLSPENPSNT [YKL101W 1214-1227]	27.1
LSKVRGRPMYPRPA [YBR083W 422-435]	342
LTKIRRRPQQPLTD [YER047C 13-26]	937
LRISKPDPESPSKL [YBL101C 847-860]	205
LSFDRPPPLTPEKN [YER032W 254-267]	124
LQNAKNDPLPPVIE [YDL077C 56-69]	10.7
LQYHKKNPYSPLFS [YPL020C 12-25]	73.4
LSGTRLVPNSPLLW [YBR055C 692-705]	1410
LTIFKRPPKQPGHQ [YOL006C 477-490]	1030
LSPAKARPSFPHND [YOR178C 9-22]	2350
LPLSRVQPVQPSQT [YNL007C 295-308]	163
LSRSKPLPLTPNSK [YCL027W 415-428]	837
LSYLKDLPFVPFLF [YNL143C 64-77]	125
LQQRRYYPIFPGSI [YBL035C 565-578]	474

Target: T4, Myo5 SH3 (MYO5_YEAST), Q04439
Experiment: SPOT array

Binder	normalised SPOT signal, Boehringer light units (BLU); mean over the file's lines of this peptide
LSKLRLSPENPSNT [YKL101W 1214-1227]	157
LSKVRGRPMYPRPA [YBR083W 422-435]	752
LTKIRRRPQQPLTD [YER047C 13-26]	393
LRISKPDPESPSKL [YBL101C 847-860]	246
LSFDRPPPLTPEKN [YER032W 254-267]	174
LQNAKNDPLPPVIE [YDL077C 56-69]	58.8
LQYHKKNPYSPLFS [YPL020C 12-25]	318
LSGTRLVPNSPLLW [YBR055C 692-705]	432
LTIFKRPPKQPGHQ [YOL006C 477-490]	703
LSPAKARPSFPHND [YOR178C 9-22]	213
LPLSRVQPVQPSQT [YNL007C 295-308]	122
LSRSKPLPLTPNSK [YCL027W 415-428]	324
LSYLKDLPFVPFLF [YNL143C 64-77]	213
LQQRRYYPIFPGSI [YBL035C 565-578]	279

Target: T5, Rvs167 SH3 (RV167_YEAST), P39743
Experiment: SPOT array

Binder	normalised SPOT signal, Boehringer light units (BLU); mean over the file's lines of this peptide
LSKLRLSPENPSNT [YKL101W 1214-1227]	37.4
LSKVRGRPMYPRPA [YBR083W 422-435]	92.6
LTKIRRRPQQPLTD [YER047C 13-26]	388
LRISKPDPESPSKL [YBL101C 847-860]	109
LSFDRPPPLTPEKN [YER032W 254-267]	91.3
LQNAKNDPLPPVIE [YDL077C 56-69]	47
LQYHKKNPYSPLFS [YPL020C 12-25]	208
LSGTRLVPNSPLLW [YBR055C 692-705]	1460
LTIFKRPPKQPGHQ [YOL006C 477-490]	160
LSPAKARPSFPHND [YOR178C 9-22]	174
LPLSRVQPVQPSQT [YNL007C 295-308]	19.3
LSRSKPLPLTPNSK [YCL027W 415-428]	394
LSYLKDLPFVPFLF [YNL143C 64-77]	44.3
LQQRRYYPIFPGSI [YBL035C 565-578]	91

Target: T6, Boi1 SH3 (BOI1_YEAST), P38041
Experiment: SPOT array

Binder	normalised SPOT signal, Boehringer light units (BLU); mean over the file's lines of this peptide
LSKLRLSPENPSNT [YKL101W 1214-1227]	471
LSKVRGRPMYPRPA [YBR083W 422-435]	479
LTKIRRRPQQPLTD [YER047C 13-26]	3090
LRISKPDPESPSKL [YBL101C 847-860]	242
LSFDRPPPLTPEKN [YER032W 254-267]	92.6
LQNAKNDPLPPVIE [YDL077C 56-69]	120
LQYHKKNPYSPLFS [YPL020C 12-25]	451
LSGTRLVPNSPLLW [YBR055C 692-705]	73.7
LTIFKRPPKQPGHQ [YOL006C 477-490]	135
LSPAKARPSFPHND [YOR178C 9-22]	807
LPLSRVQPVQPSQT [YNL007C 295-308]	31.9
LSRSKPLPLTPNSK [YCL027W 415-428]	642
LSYLKDLPFVPFLF [YNL143C 64-77]	62.5
LQQRRYYPIFPGSI [YBL035C 565-578]	6230

Reference: PMC314469, “Protein Interaction Networks by Proteome Peptide Scanning” (PLoS Biology, 2004)
